Results published in article PMC5113954, “Characterization of the Sucrose Phosphate Phosphatase (SPP) Isoforms from Arabidopsis thaliana and Role of the S6PPc Domain in Dimerization” (PLoS ONE, 2016).
Values belong to the molecule of their own block, whether it stands above or below them.

How the values were obtained:
[1] = target: Chimeric Synechocystis SPP fused at its C-terminus to the S6PPc domain of Arabidopsis SPP2 (SynSPP+S6PPc), His-tagged, from E. coli (Synechocystis sp. PCC 6803 | Arabidopsis thaliana); experiment: SEC; gel filtration of the purified His-tagged proteins; eluted fractions immunoblotted with anti-His antibodies (Fig 7, S1 Fig)
S6PP domain of SPP2 = target: T1, S6PP domain of SPP2 (Arabidopsis thaliana, UniProt Q9SJ66); experiment: Pi release (SnCl2-molybdate), specific activity; format: biochemical; conditions: 1.25 mM Suc6P; 8 mM MgCl2, pH 7.0, 37 °C
T1 construct: N-terminal S6PP (HAD) domain only, C-terminal S6PPc domain removed; ends at ...IGHFKL by reverse primer P11; N-terminal His10 tag (pET-19b), E. coli; about 30 kDa monomer

SynSPP = target: T2, SynSPP (Synechocystis sp. PCC 6803, UniProt P74325); experiment: Pi release (SnCl2-molybdate), specific activity; format: biochemical; conditions: 1.25 mM Suc6P; 8 mM MgCl2, pH 7.0, 37 °C
T2 construct: gene slr0953; full length, N-terminal His6 tag (pQE-80L), E. coli BL21(DE3)

SPP3b = target: T3, SPP3b (Arabidopsis thaliana, UniProt Q93XN8); experiment: inhibition of Pi release from Suc6P (SnCl2-molybdate); format: biochemical
T3 construct: about 52 kDa subunit, about 90 kDa dimer; cDNA from RIKEN
T3 sequence (Q93XN8 1-423): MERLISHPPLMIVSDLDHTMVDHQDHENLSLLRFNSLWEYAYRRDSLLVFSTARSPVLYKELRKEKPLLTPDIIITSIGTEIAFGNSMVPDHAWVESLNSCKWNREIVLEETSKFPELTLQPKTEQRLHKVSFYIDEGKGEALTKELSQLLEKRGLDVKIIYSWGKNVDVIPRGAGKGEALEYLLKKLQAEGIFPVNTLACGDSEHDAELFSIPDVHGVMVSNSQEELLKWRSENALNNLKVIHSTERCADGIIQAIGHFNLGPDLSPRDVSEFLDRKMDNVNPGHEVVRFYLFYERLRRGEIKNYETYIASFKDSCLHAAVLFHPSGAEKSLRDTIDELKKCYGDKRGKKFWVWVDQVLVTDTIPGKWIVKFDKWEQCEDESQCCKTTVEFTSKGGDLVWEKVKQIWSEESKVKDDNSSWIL

[2] = substrate: O=P(O)(O)OC[C@H]1O[C@@](CO)(O[C@H]2O[C@H](CO)[C@@H](O)[C@H](O)[C@H]2O)[C@@H](O)[C@@H]1O; experiment: Pi release (SnCl2-molybdate), nonlinear regression; format: biochemical, Arabidopsis thaliana; conditions: 25 mM HEPES-KOH pH 7.0, 8 mM MgCl2, 37 °C
Text: Pi release (SnCl2-molybdate), nonlinear regression on SPP3b

[3] = target: the molecule itself; experiment: SEC; Superose 12 10/300 GL, 25 mM HEPES-KOH pH 7.5, 150 mM KCl, 1 mM PMSF, without Mg2+, 0.4 ml/min; fractions followed by A280 and SPP activity; mass from a calibration curve of standards
[4] = substrate: O=P(O)(O)OC[C@H]1O[C@@](CO)(O[C@H]2O[C@H](CO)[C@@H](O)[C@H](O)[C@H]2O)[C@@H](O)[C@@H]1O; experiment: Pi release (SnCl2-molybdate), nonlinear regression; format: biochemical, Arabidopsis thaliana; conditions: 25 mM HEPES-KOH pH 7.0, 8 mM MgCl2, 37 °C; remark: listed apart in the source
Text: Pi release (SnCl2-molybdate), nonlinear regression on SPP3a

[5] = substrate: O=P(O)(O)OC[C@H]1O[C@@](CO)(O[C@H]2O[C@H](CO)[C@@H](O)[C@H](O)[C@H]2O)[C@@H](O)[C@@H]1O; experiment: Pi release (SnCl2-molybdate), nonlinear regression; format: biochemical, Arabidopsis thaliana; conditions: 25 mM HEPES-KOH pH 7.0, 8 mM MgCl2, 37 °C; remark: listed apart in the source
Text: Pi release (SnCl2-molybdate), nonlinear regression on SPP2

T2 sequence (P74325 entry or part of it): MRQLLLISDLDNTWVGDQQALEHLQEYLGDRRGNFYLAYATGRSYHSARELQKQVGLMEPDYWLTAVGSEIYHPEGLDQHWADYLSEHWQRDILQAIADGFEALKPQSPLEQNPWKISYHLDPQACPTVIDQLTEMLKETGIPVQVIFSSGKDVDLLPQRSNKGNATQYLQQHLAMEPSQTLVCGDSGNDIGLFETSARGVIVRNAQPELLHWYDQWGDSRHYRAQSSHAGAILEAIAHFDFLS

stoichiometry N [1]: 2
Molecule: Chimeric Synechocystis SPP fused at its C-terminus to the S6PPc domain of Arabidopsis SPP2 (SynSPP+S6PPc), His-tagged, from E. coli (enzyme)

Molecule: O=P(O)(O)OC[C@H]1O[C@@](CO)(O[C@H]2O[C@H](CO)[C@@H](O)[C@H](O)[C@H]2O)[C@@H](O)[C@@H]1O [Suc6P]
Pi release (SnCl2-molybdate), specific activity (S6PP domain of SPP2): with an activity significantly lower than the native protein
Pi release (SnCl2-molybdate), specific activity (SynSPP): The activity of each protein or chimera was determined as described in Materials and Methods

Ki (SPP3b): 24 mM
Molecule: OC[C@H]1O[C@@](CO)(O[C@H]2O[C@H](CO)[C@@H](O)[C@H](O)[C@H]2O)[C@@H](O)[C@@H]1O [sucrose]

B1: Arabidopsis thaliana sucrose-phosphate phosphatase isoform SPP3b, recombinant Nt-Histag (His10-SPP3b, pET-19b) (enzyme, UniProt Q93XN8 1-423, looked up)
chain: MERLISHPPLMIVSDLDHTMVDHQDHENLSLLRFNSLWEYAYRRDSLLVFSTARSPVLYKELRKEKPLLTPDIIITSIGTEIAFGNSMVPDHAWVESLNSCKWNREIVLEETSKFPELTLQPKTEQRLHKVSFYIDEGKGEALTKELSQLLEKRGLDVKIIYSWGKNVDVIPRGAGKGEALEYLLKKLQAEGIFPVNTLACGDSEHDAELFSIPDVHGVMVSNSQEELLKWRSENALNNLKVIHSTERCADGIIQAIGHFNLGPDLSPRDVSEFLDRKMDNVNPGHEVVRFYLFYERLRRGEIKNYETYIASFKDSCLHAAVLFHPSGAEKSLRDTIDELKKCYGDKRGKKFWVWVDQVLVTDTIPGKWIVKFDKWEQCEDESQCCKTTVEFTSKGGDLVWEKVKQIWSEESKVKDDNSSWIL
notes: Sucrose-phosphate phosphatase SPP3b of Arabidopsis thaliana (At3g52340); cDNA from RIKEN, amplified with primers P9 (start codon) and P10 (stop codon); source: E. coli BL21 (DE3), purified (HisTrap HP, Superose 12); not shown: His10, N-terminal, kept
Km [2]: 3460 ± 710 µM
kcat [2]: 3.59 s⁻¹
kcat/Km [2]: 1040 M⁻¹ s⁻¹
stoichiometry N [3]: 2

B2: Arabidopsis thaliana sucrose-phosphate phosphatase isoform SPP3a, recombinant Nt-Histag (His10-SPP3a, pET-19b) (enzyme, UniProt Q93WU4 1-425, looked up)
chain: MDRLEGPPRLILVADLDCTLVDHDDPENNDLLRFNALWEAHYRHDSLLVYCTGRSFSSYSSLRKKRPLLTPDIAVTSVGSEIVYGGGESTVSDVVWTARLDYKWNRDIVVEETLKFPKLEPQPDKSQEEHKVSFFVGREDAVEIMKVLPGILEERGVDVKLVYSNGYAFDVLPRGAGKQGALTYLLDKLDIEGKQPSNTLVCGDSGNDAELFNISDVYGVMVSNSHEELLQWYEENAKDNPKIFHASERCGAGMIEAIQRFNLGPNVSPRDVMDTENFHGESLNPAHEVVQFYLFYERWRCGEVEKSDKYLQNLKSLSSPLGIFVHPSGVEKPIHEWIDEMENLYGDGKEKKFRIWLDNVTSSHISSDTWLAKFVKHELSEGKVRSCSTKVLLSYKEEKQRLTWMHIHQSWLDESSSDDQEKWIF
notes: Sucrose-phosphate phosphatase SPP3a of Arabidopsis thaliana (At3g54270); amplified from rosette leaf cDNA with primers P7 (start codon) and P8 (stop codon); source: E. coli BL21 (DE3), purified (HisTrap HP, Superose 12); not shown: His10, N-terminal, kept
Km [4]: 870 ± 390 µM
kcat [4]: 0.396 s⁻¹
kcat/Km [4]: 454 M⁻¹ s⁻¹
stoichiometry N [3]: 2

B3: Arabidopsis thaliana sucrose-phosphate phosphatase isoform SPP2, recombinant Nt-Histag (His10-SPP2, pET-19b) (enzyme, UniProt Q9SJ66 1-422, looked up)
chain: MERLTSPPRLMIVSDLDHTMVDHHDPENLSLLRFNSLWEHAYRHDSLLVFSTGRSPTLYKELRKEKPLLTPDITIMSVGTEITYGNSMVPDHGWVEALNNKWDLGIVKQEASNFPELKLQAETEQRPHKVSFYVEKSKAQEVTKELSQRFLKRGLDVKIIYSGGMDLDILPQGAGKGQALAYLLKKLKTEGKLPVNTLACGDSGNDAELFSIPDVYGVMVSNAQEELLKWHAENAKDNPKVIHAKERCAGGIIQAIGHFKLGPNLSPRDVSDFLEIKVENVNPGHEVVKFFLFYERWRRGEVENSEAYTASLKASVHPGGVFVHPSGTEKSLRDTIDELRKYHGDKQGKKFRVWADQVLATDTTPGTWIVKLDKWEQDGDERRCCTTTVKFTSKEGEGLVWEHVQQTWSKETMVKDDSSWII
notes: Sucrose-phosphate phosphatase SPP2 of Arabidopsis thaliana (At2g35840); cDNA from RIKEN, amplified with primers P5 (start codon) and P6 (stop codon); also called Nt-Histag SPP2; SSP2; source: E. coli BL21 (DE3), purified (HisTrap HP, Superose 12); not shown: His10, N-terminal, kept
Km [5]: 730 ± 320 µM
kcat [5]: 67.8 s⁻¹
kcat/Km [5]: 92500 M⁻¹ s⁻¹
stoichiometry N [3]: 2
